B1: OpaE (Aspergillus ustus) (protein)
chain: MGPLRVFTDNKVKVMLLNPIGGAGFNDFVVETVLNHKDPSTHVTITSLANRIGGNQTLAYPSIRPLLYGEMIRVCLQARKENYDVLIINCFGDPMVDELQQIAGDDMVILGARQVAVQTASKISSKYAVLLPYDMKSSPDPLHQRVVADTRTAVAHPVVDMAFNDDLTPMDGESLGERLATQGKLAIKENGAEVLVLGCTAMVGCWQGLMRAVGVPVIDPTVAALRAAGKAGRLKRELVGGASTKRSGTFPTEKELKMIAESEPSYPFSGRIEI
notes: recombinant His6-tagged OpaE

How the values were obtained:
[1] = tested on: T1, CC[C@H](C)[C@@H]1NC(=O)[C@@H](Cc2ccccc2)n2c1nc1c(c2=O)C=CC=CO1; assay: purified protein; format: biochemical, Aspergillus ustus; conditions: FAD; NADPH
T1 construct: recombinant N-terminally His6-tagged OpaC from cDNA, 457 amino acids, lacking residues 248 to 252 of KIA75456

[2] = substrate: CC[C@H](C)C1=C2N=C3OC=CC=C[C@]3(O)C(=O)N2[C@H](Cc2ccccc2)C(=O)N1; assay: HPLC enzyme assay with purified OpaE, Michaelis-Menten kinetics (KM); D2O labeling by LC-MS; format: biochemical, Aspergillus ustus

| Molecule | Km [1] [µM] | Km [2] [µM] |
| --- | --- | --- |
| OpaC (Aspergillus ustus; DEL248-252) | 430 ± 40 | – |
| B1 | – | 1410 ± 50 |

— article PMC7530659, “Oxepinamide F biosynthesis involves enzymatic D-aminoacyl epimerization, 3H-oxepin formation, and hydroxylation induced double bond migration” (Nature Communications, 2020)
